Results taken from patent US20180244785A1 (MERRIMACK PHARMACEUTICALS, published 2018).
Blank lines part the entries; values can stand above or below the binder they belong to.

Columns and labels:
[1] = target: T1, recombinant human FGFR4 Fc fusion (human, UniProt P22455 144-369); test: ELISA, scFv on coated FGFR-Fc
T1 construct: 19 used; also called FGFR4c; not shown: Fc part of the FGFR-Fc fusion
T1 sequence: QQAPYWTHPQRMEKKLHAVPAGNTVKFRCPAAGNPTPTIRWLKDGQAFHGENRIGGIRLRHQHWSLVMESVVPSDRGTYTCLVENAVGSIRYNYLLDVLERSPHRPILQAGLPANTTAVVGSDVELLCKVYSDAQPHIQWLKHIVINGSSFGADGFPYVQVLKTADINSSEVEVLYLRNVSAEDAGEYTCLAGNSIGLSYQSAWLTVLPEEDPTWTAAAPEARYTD
Description: (§1) To characterize the novel anti-FGFR antibodies, their relative ability to bind to each individual FGFR in vitro was compared. A solid phase-based ELISA was used to measure the relative binding of the candidate antibodies to immobilized recombinant human FGFR1c, FGFR2c, FGFR3c, and FGFR4. EC50 binding curves were generated for a subset of candidates (FIGS. 3A-3D, respectively; Table 1).
(§2) For the ELISA assay, the ability of each mAb to cross react with the […] FGF receptors was tested across a concentration curve in order to determine the relative binding across FGFR1-4. FGFR2IIIb was used as a negative control. Black 384-well Maxisorp plates were coated overnight with FGFR-Fc fusions in PBS to 1 ug/ml before washing and blocking with 75 ul/well Pierce Protein Free (PBS) Blocking Buffer for 1 hour at RT. Antibody dilutions were prepared freshly in 1% BSA- PBS+0.05% Tween20 and 25 ul of each antibody was added to wells in duplicate. Plates were incubated at RT for 2 hours, followed by addition of detection antibody at 50 ng/ml in 1% BSA PBS, 0.05% Tween20. ECL substrate (Pierce) was added and plates were read on the EnVision plate reader.

[2] = target: T2, recombinant human FGFR3c Fc fusion (human, UniProt P22607 141-372); test: ELISA, scFv on coated FGFR-Fc
T2 construct: also called FGFR3IIIc; not shown: Fc part of the FGFR-Fc fusion
T2 sequence: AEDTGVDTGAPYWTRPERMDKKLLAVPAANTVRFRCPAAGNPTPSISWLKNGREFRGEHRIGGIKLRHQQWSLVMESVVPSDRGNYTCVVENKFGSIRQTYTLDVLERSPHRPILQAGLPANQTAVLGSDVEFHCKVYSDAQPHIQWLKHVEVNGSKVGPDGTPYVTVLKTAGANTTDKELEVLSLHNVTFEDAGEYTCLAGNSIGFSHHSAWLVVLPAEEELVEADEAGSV
Description: as §1, §2

[3] = target: T3, FGFR2IIIb Fc fusion (negative control) (human); test: ELISA, scFv on coated FGFR-Fc
T3 construct: also called FGFR2b; not shown: Fc part of the FGFR-Fc fusion
T3 chain: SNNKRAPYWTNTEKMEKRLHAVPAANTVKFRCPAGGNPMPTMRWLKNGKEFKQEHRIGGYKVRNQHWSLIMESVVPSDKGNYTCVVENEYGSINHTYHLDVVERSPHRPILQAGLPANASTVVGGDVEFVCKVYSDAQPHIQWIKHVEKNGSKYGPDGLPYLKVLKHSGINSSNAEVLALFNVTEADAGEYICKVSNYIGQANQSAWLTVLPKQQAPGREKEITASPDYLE
Description: as §1, §2

[4] = target: T4, recombinant human FGFR2c Fc fusion (human, UniProt P21802 148-377); test: ELISA, scFv on coated FGFR-Fc
T4 construct: also called FGFR2IIIc; not shown: Fc part of the FGFR-Fc fusion
Description: as §1, §2

[5] = target: T5, recombinant human FGFR1c Fc fusion (human, UniProt P11362 141-376); test: ELISA, scFv on coated FGFR-Fc
T5 construct: also called FGFR1IIIc; not shown: Fc part of the FGFR-Fc fusion
T5 sequence: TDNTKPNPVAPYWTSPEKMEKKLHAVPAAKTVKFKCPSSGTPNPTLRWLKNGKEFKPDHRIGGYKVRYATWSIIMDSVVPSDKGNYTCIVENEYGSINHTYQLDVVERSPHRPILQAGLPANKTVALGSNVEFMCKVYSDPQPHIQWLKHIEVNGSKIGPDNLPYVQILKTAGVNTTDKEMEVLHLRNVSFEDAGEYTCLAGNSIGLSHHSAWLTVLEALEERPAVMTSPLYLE
Description: as §1, §2

FGFR1 on tumour cells = FGFR1 on tumour cells (UniProt P11362 22-822); test: cell-based or functional assay
6His-Fc-FGFR4 = target: T6, 6His-Fc-FGFR4 (human, UniProt P22455 144-369); test: competition ELISA, blocks 6His-Fc-FGFR4 binding to coated FGF2
T6 construct: not shown: 6His tag and Fc as named in '6His-Fc-FGFR'
T6 sequence: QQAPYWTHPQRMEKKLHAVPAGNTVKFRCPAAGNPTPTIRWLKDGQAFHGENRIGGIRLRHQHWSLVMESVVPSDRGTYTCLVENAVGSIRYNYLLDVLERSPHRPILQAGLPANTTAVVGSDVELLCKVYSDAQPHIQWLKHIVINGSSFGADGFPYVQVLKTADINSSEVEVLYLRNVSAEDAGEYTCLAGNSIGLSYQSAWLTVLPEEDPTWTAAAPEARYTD
Description: (§3) ELISA plates were coated with 50 ug/ml Heparin Sulfate (HSPG) (Sigma Aldrich) and incubated overnight at room temperature. Plates were then washed extensively with PBS containing 0.05% v/v Tween20 (PBST). Plates were then blocked with 2.5% BSA in PBST for one hour and washed extensively as before. 40-60 μL of FGF1 or FGF2 was then added to each well at 40 μg/ml and allowed to bind at room temperature for 2 hours. Plates were then washed extensively with PBST as before. Stock solutions of each 6His-Fc-FGFR (FGFR1-4) were prepared at 500 ng/ml in 2% v/v BSA-PBST and each antibody was prepared as a 2×-dilution series in 2% v/v BSA-PBST. Antibodies dilution series and 6His-Fc-FGFR1-4 were diluted in a 1:1 fashion and immediately added to the relative wells of the plate and allowed to bind for 2 hours at room temperature. Plates were washed extensively as before with PBST and the remaining fraction of bound 6His-Fc-FGFR was detected using a polyclonal-anti-His-6-HRP conjugated antibody (Abcam) for one hour at room temperature. After extensive washing with PBST, 50 μl of Pierce Chemiluminescent substrate (Thermo Fisher Scientific, Rockford, USA) was added and plates were measured on an Envision plate reader (Perkin Elmer). Raw data was background corrected and plotted using Prism software. […]

[6] = target: T1, recombinant human FGFR4 Fc fusion; test: solid phase ELISA on coated FGFR-Fc
Description: as §2

[7] = target: T2, recombinant human FGFR3c Fc fusion; test: solid phase ELISA on coated FGFR-Fc
Description: as §2

[8] = target: T4, recombinant human FGFR2c Fc fusion; test: solid phase ELISA on coated FGFR-Fc
Description: as §2

[9] = target: T5, recombinant human FGFR1c Fc fusion; test: solid phase ELISA on coated FGFR-Fc
Description: as §2

6His-Fc-FGFR1c = target: T7, 6His-Fc-FGFR1c (human, UniProt P11362 141-376); test: competition ELISA, blocks 6His-Fc-FGFR1c binding to coated FGF2
T7 construct: not shown: 6His tag and Fc as named in '6His-Fc-FGFR'
T7 sequence: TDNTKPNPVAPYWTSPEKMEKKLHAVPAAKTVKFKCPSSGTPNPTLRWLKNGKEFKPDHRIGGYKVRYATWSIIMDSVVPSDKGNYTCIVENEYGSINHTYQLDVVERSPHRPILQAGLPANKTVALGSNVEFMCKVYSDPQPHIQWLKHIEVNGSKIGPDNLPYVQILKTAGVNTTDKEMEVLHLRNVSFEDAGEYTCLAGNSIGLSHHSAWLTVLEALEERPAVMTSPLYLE
Description: as §3

[10] = target: soluble FGFR2c receptor protein (human, UniProt P21802 148-377); test: BLI Octet RED96, antibody on anti-hIgG Fc tip
Summary of the method: (§4)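 Bio-layer interferometry: antibodies captured on anti-human IgG Fc tips for 120 s, PBS baseline 60 s, then 300 s association with soluble receptor and 600 s dissociation in PBS. Antibodies and receptors prepared at 300 nM in PBS; kinetics fitted to a 1:1 binding model.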

[11] = target: T8, soluble FGFR3c receptor protein (human, UniProt P22607 141-372); test: BLI Octet RED96, antibody on anti-hIgG Fc tip
T8 sequence: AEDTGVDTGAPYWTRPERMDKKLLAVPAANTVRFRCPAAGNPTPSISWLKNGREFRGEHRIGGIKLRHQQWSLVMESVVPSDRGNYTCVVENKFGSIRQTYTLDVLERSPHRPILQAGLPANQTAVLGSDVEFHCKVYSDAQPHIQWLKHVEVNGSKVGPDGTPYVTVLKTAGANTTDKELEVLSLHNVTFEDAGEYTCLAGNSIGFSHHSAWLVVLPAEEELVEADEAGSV
Summary of the method: as §4

[12] = target: T9, soluble FGFR1c receptor protein (human, UniProt P11362 141-376); test: BLI Octet RED96, antibody on anti-hIgG Fc tip
T9 sequence: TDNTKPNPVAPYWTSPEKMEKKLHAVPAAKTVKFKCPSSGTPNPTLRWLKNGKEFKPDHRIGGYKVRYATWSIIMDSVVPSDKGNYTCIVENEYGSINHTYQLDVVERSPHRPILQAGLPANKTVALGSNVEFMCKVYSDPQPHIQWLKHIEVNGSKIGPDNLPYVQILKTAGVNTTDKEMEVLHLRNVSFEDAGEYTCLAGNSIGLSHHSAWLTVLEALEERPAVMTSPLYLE
Summary of the method: as §4

[13] = target: T10, soluble FGFR4 receptor protein (human, UniProt P22455 144-369); test: BLI Octet RED96, antibody on anti-hIgG Fc tip
T10 sequence: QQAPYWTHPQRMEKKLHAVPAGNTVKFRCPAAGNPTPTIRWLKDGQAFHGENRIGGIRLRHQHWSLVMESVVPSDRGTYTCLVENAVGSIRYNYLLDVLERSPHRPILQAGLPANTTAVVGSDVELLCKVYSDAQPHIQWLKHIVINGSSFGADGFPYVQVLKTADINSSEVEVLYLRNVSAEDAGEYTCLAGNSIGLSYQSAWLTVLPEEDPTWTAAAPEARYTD
Summary of the method: as §4

T4 sequence (P21802 148-377): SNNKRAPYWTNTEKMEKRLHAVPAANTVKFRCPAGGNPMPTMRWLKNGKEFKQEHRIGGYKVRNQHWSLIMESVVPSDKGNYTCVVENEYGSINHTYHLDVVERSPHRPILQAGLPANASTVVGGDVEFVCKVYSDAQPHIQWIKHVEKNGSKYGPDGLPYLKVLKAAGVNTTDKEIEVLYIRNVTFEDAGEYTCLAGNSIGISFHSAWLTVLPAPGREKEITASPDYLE
Chain of soluble FGFR2c receptor protein (P21802 148-377): as above
Chain of FGFR1 on tumour cells (P11362 22-822): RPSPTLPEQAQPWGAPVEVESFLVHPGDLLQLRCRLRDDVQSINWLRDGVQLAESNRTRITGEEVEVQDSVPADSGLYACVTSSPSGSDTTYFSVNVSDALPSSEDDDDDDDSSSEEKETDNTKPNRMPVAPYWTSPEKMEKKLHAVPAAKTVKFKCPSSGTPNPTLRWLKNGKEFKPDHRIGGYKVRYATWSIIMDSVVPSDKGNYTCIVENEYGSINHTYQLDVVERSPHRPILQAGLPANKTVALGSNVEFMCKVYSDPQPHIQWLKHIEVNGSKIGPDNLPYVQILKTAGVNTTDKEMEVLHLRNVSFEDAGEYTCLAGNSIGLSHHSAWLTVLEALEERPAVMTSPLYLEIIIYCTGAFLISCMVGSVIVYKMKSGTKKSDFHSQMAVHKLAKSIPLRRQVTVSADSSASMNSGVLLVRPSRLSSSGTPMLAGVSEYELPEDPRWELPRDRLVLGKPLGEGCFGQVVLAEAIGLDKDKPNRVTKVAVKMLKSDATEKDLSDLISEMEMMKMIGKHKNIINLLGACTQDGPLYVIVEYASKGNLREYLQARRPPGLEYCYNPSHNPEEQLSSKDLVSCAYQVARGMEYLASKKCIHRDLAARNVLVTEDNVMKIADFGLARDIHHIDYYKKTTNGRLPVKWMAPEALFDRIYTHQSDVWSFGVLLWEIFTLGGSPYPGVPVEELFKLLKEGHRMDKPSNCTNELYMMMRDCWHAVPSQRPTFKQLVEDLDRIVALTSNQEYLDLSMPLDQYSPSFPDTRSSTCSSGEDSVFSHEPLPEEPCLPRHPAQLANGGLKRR

EC50 [1]: 0.278 nM
EC50 [2]: 1.36 nM
EC50 [3]: ~96700 nM
EC50 [4]: 1.47 nM
EC50 [5]: 0.201 nM
B1: Ab7 (scFv format) (scFv)
scFv: QVQLVESGGGVVQPGRSLRLSCAASGFTFSGYAIHWVRQAPGKGLEWVALISYDGSNKYYADSAKGRFTISRDNSKNTLSLQMNSLRVEDTAIYYCVRGAGRGYTYGPDGFDIWGQGTMVTVSSASTGGGGSGGGGSGGGGSGGGGSDIVMTQTPLSSPVTLGQPASISCRSSESLVYRDGNTYLSWLHQRPGQSPRLLIYKVSNRFSGVPDRFSGSGAGTDFTLKISRVEAEDVGVYFCMQATQFPWTFGQGTKVEIKRTVAAPSHHHHHH
notes: also called FGF#51

EC50 [1]: 0.312 nM
EC50 [2]: 0.326 nM
EC50 [3]: ~80000 nM
EC50 [4]: 0.247 nM
EC50 [5]: 0.293 nM
B2: Ab15 (scFv format) (scFv)
scFv: EVQLLESGGGVVQPGRSLRLSCAASGFTFSSYAMHWVRQAPGKGLEWVAVISYDGSNKYYADSVKGRFTISRDNSKNTLSLQMNSLRVEDTAIYYCVRGAGRGYTYGPDGFDIWGQGTMVTVSSASTGGGGSGGGGSGGGGSGGGGSDIVMTQTPLSLSVTPGQPASISCTSSRSLLHSDGKTYVYWYVQKSGQPPQLLIYELSNRFSGVPDRFSGSGSRTDFTLKISRVEAEDVGVYYCMQYIEAPLTFGGGTKVEIKRTVAAPSHHHHHH
notes: also called FGF#26

IC50 of pERK inhibition (AlphaScreen SureFire) in NCI-H1581 cells (FGFR1 on tumour cells): 0.715 nM
IC50 (6His-Fc-FGFR4): 7.38 nM
EC50 [6]: 1.26 nM
EC50 [7]: 0.171 nM
EC50 [8]: 0.036 nM
EC50 [9]: 0.013 nM
IC50 (6His-Fc-FGFR1c): 4.15 nM
Kd [10]: 4.62 nM
koff [10]: 0.0011 s⁻¹
kon [10]: 218000 M⁻¹ s⁻¹
Kd [11]: 11.6 nM
koff [11]: 0.0015 s⁻¹
kon [11]: 126000 M⁻¹ s⁻¹
Kd [12]: 12 nM
koff [12]: 0.00116 s⁻¹
kon [12]: 85100 M⁻¹ s⁻¹
Kd [13]: 6.69 nM
koff [13]: 0.000887 s⁻¹
kon [13]: 112000 M⁻¹ s⁻¹
B3: Ab90 (antibody, human IgG2, kappa, V domains shown)
VH: EVQLLESGGGVVQPGRSLRLSCAASGFTFSSYAMHWVRQAPGKGLEWVAVISYDGSNKYYADSVKGRFTISRDNSKNTLSLQMNSLRVEDTAIYYCVRGAGRGYPYGPDGFDIWGQGTMVTVSS
VL: DIVMTQTPLSLSVTPGQPASISCTSSRSLLHSDGKTYVYWYVQKSGQPPQLLIYELSNRFSGVPDRFSGSGSRTDFTLKISRVEAEDVGVYYCMQYVEVPLTFGGGTKVEIKR
notes: format in the assays not spelled out
